Laboratory results from US20230075753A1.
“And” between values parts separate entries of the source, which are not always exact repeats. Equal values may be shown once.

Columns and labels:
[1] = target: Active cyno KLK5 (cynomolgus monkey)
[2] = target: Active human KLK5 (human) (UniProt Q9Y337); test: cell-based or functional assay

- IC50 (read off the curve) [1]: 0.7 nM
- Hu KLK5 IC50, inhibition of protease activity (Boc-VPR-AMC) (not printed (M by Table 2)) [2]: 1.03e-10 and 7.44e-11
- IC50 (M), inhibition of kallikrein protease activity (fluorogenic peptide substrate) [2]: 1.03e-10 M
Substance: Human LEKTI D5 rabbit Fc fusion protein
